This note sets out measurements from article PMC3702631 (Structure (London, England : 1993), 2013).

Numbering of substitutions follows the chain as printed. Names and notes keep the numbering of the source.

This series concerns the molecule itself. Nature of the series: SEC. (In general: SEC sorts molecules by how far they enter the pores of the column.)

Broadly, the stoichiometry N is the number of molecules, sites or subunits per partner or assembly.

B1: mouse TBK1 residues 1-657, K38A (GST tag cleaved) (domain or fragment, UniProt Q9WUN2 1-657, looked up)
chain: MQSTSNHLWLLSDILGQGATANVFRGRHKKTGDLYAVAVFNNISFLRPVDVQMREFEVLKKLNHKNIVKLFAIEEETTTRHKVLIMEFCPCGSLYTVLEEPSNAYGLPESEFLIVLRDVVGGMNHLRENGIVHRDIKPGNIMRVIGEDGQSVYKLTDFGAARELEDDEQFVSLYGTEEYLHPDMYERAVLRKDHQKKYGATVDLWSVGVTFYHAATGSLPFRPFEGPRRNKEVMYKIITGKPSGAISGVQKAENGPIDWSGDMPLSCSLSQGLQALLTPVLANILEADQEKCWGFDQFFAETSDVLHRMVIHVFSLQHMTAHKIYIHSYNTAAVFHELVYKQTKIVSSNQELIYEGRRLVLELGRLAQHFPKTTEENPIFVTSREQLNTVGLRYEKISLPKIHPRYDLDGDASMAKAVTGVVCYACRTASTLLLYQELMRKGVRWLVELVKDDYNETVHKKTEVVITLDFCIRNIEKTVKVYEKLMKVNLEAAELGEISDIHTKLLRLSSSQGTIESSLQDISSRLSPGGLLADTWAHQEGTHPRDRNVEKLQVLLNCITEIYYQFKKDKAERRLAYNEEQIHKFDKQKLYYHATKAMSHFSEECVRKYEAFKDKSEEWMRKMLHLRKQLLSLTNQCFDIEEEVSKYQDYTNELQET
Consider B1, for which the “stoichiometry N” value is 2.

B2: mouse TBK1 residues 1-657, S172A (GST tag cleaved) (domain or fragment, UniProt Q9WUN2 1-657, looked up)
chain: B1 chain with A38K, S172A
Consider B2, for which the “stoichiometry N” value was 2.
